For five molecules, Kd, binding result and KD1 (at low concentrations) results are on record in PMC3783020 (Cellular microbiology, 2012).

The target of assay [1] is MBP-CHMP4B_(ΔC-Alix) (human). The assay is described as follows: SPR.
The target of assay [2] is T1, CHMP3 full length (residues 1-222) (human, UniProt Q9Y3E7 1-222).
T1 sequence (looked up): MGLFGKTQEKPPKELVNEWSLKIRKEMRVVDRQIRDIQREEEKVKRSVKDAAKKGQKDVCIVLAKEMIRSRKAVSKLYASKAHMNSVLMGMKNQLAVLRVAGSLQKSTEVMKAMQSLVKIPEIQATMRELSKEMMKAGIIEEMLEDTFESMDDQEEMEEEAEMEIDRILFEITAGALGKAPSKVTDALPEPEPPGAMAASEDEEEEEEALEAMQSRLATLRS
In words: SPR.

Assay [3] has as its target T1, CHMP3 full length (residues 1-222). In words: cryo-EM structure.
The target of assay [4] is CHMP2B-His6 (full length) (human, UniProt Q9UQN3 1-213). The assay is described as follows: SPR.
Sequence of CHMP2B-His6 (full length) (human, UniProt Q9UQN3 1-213) (Q9UQN3 whole entry): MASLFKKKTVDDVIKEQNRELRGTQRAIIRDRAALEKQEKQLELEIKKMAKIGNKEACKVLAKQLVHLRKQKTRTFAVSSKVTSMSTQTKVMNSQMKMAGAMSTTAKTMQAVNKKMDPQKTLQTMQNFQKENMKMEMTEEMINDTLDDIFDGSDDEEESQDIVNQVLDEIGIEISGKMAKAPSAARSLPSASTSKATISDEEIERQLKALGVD
In assay [5] the target is MBP-CHMP4B_(ΔC-Alix) (human). In words: SPR. This is another data set of the same source.

With “CHMP2B-His6 (full length) (from UniProt Q9UQN3 1-213) (natural protein)”, the Kd in assay [1] was 560 nM.

B1: MBP-CHMP2AΔC (residues 9-161) (domain or fragment, human, UniProt O43633 9-161, looked up)
chain: KTPEELLRQNQRALNRAMRELDRERQKLETQEKKIIADIKKMAKQGQMDAVRIMAKDLVRTRRYVRKFVLMRANIQAVSLKIQTLKSNNSMAQAMKGVTKAMGTMNRQLKLPQIQKIMMEFERQAEIMDMKEEMMNDAIDDAMGDEEDEEESD
modifications: biotin on lysines (biotin sulfo-LC-NHS, molar ratio 1:5) where it was immobilised; not biotinylated as analyte
In turn, B1 registered a Kd in assay [2] of 3.2 µM.

B2: CHMP2AΔC (residues 9-161), MBP removed (domain or fragment, human, UniProt O43633 9-161, looked up)
chain: B1 chain
As for B2, in assay [3], the binding result is “binds”.

B3: CHMP3ΔC (residues 9-183) (domain or fragment, human, UniProt Q9Y3E7 9-183, looked up)
chain: EKPPKELVNEWSLKIRKEMRVVDRQIRDIQREEEKVKRSVKDAAKKGQKDVCIVLAKEMIRSRKAVSKLYASKAHMNSVLMGMKNQLAVLRVAGSLQKSTEVMKAMQSLVKIPEIQATMRELSKEMMKAGIIEEMLEDTFESMDDQEEMEEEAEMEIDRILFEITAGALGKAPSK
B3 returned a Kd in assay [4] of 1400 nM. This counts as single-digit micromolar.

B4: CHMP3 full length (residues 1-222) (natural protein)
chain: T1 sequence (looked up)
B4 came in with a KD1 (at low concentrations) in assay [5] of 0.15 µM.
